Data published in publication PMC3430690 (PLoS ONE, 2012).

Experiments:
[1] = biological target: 3xFlag-LRRK1 K650A GTP deficient binding mutant, full-length (human) (UniProt Q38SD2); assay: immunogold labelling + negative-stain transmission electron microscopy; purified 3xFlag proteins diluted to 5 ng/ul in 20 mM Tris-HCl pH 7.5, 150 mM NaCl, 0.02% Tween 20 or Triton X-100; uranyl acetate stain; anti-Flag M2 primary and 5 nm gold secondary antibody; distances between gold particles and particle diameters measured
[2] = biological target: 3xFlag-LRRK1 wild-type (leucine-rich repeat kinase 1), full-length (human) (UniProt Q38SD2); assay: as above
[3] = biological target: 3xFlag-LRRK2 G2019S pathogenic mutant, full-length (human) (UniProt Q5S007); assay: as above; conditions: remark: other sources report otherwise
[4] = biological target: 3xFlag-LRRK2 K1906M kinase dead mutant, full-length (human) (UniProt Q5S007); assay: as above
[5] = biological target: 3xFlag-LRRK2 T1348N GTP deficient binding mutant, full-length (human) (UniProt Q5S007); assay: as above
3xFlag-LRRK1 = biological target: T1, 3xFlag-LRRK1 (Homo sapiens, UniProt Q38SD2); assay: pulldown from cell lysate on ATP-agarose, competed by free ATP; format: binding; conditions: ATP-depleted lysate, pH 7.4, 5 mM MgCl2, 4°C; competed by 1 mM ATP, not GTP; kinase domain site
T1 construct: homodimer

3xFlag-LRRK2 = biological target: T2, 3xFlag-LRRK2 (Homo sapiens, UniProt Q5S007); assay: as above; format: binding; conditions: ATP-depleted lysate, pH 7.4, 5 mM MgCl2, 4°C; competed by 1 mM ATP, not GTP; kinase domain site
T2 construct: homodimer

[6] = biological target: the molecule itself; assay: immunogold labelling + negative-stain transmission electron microscopy; purified 3xFlag proteins diluted to 5 ng/ul in 20 mM Tris-HCl pH 7.5, 150 mM NaCl, 0.02% Tween 20 or Triton X-100; uranyl acetate stain; anti-Flag M2 primary and 5 nm gold secondary antibody; distances between gold particles and particle diameters measured

T2 sequence (Q5S007 whole entry, the tested form may be a part): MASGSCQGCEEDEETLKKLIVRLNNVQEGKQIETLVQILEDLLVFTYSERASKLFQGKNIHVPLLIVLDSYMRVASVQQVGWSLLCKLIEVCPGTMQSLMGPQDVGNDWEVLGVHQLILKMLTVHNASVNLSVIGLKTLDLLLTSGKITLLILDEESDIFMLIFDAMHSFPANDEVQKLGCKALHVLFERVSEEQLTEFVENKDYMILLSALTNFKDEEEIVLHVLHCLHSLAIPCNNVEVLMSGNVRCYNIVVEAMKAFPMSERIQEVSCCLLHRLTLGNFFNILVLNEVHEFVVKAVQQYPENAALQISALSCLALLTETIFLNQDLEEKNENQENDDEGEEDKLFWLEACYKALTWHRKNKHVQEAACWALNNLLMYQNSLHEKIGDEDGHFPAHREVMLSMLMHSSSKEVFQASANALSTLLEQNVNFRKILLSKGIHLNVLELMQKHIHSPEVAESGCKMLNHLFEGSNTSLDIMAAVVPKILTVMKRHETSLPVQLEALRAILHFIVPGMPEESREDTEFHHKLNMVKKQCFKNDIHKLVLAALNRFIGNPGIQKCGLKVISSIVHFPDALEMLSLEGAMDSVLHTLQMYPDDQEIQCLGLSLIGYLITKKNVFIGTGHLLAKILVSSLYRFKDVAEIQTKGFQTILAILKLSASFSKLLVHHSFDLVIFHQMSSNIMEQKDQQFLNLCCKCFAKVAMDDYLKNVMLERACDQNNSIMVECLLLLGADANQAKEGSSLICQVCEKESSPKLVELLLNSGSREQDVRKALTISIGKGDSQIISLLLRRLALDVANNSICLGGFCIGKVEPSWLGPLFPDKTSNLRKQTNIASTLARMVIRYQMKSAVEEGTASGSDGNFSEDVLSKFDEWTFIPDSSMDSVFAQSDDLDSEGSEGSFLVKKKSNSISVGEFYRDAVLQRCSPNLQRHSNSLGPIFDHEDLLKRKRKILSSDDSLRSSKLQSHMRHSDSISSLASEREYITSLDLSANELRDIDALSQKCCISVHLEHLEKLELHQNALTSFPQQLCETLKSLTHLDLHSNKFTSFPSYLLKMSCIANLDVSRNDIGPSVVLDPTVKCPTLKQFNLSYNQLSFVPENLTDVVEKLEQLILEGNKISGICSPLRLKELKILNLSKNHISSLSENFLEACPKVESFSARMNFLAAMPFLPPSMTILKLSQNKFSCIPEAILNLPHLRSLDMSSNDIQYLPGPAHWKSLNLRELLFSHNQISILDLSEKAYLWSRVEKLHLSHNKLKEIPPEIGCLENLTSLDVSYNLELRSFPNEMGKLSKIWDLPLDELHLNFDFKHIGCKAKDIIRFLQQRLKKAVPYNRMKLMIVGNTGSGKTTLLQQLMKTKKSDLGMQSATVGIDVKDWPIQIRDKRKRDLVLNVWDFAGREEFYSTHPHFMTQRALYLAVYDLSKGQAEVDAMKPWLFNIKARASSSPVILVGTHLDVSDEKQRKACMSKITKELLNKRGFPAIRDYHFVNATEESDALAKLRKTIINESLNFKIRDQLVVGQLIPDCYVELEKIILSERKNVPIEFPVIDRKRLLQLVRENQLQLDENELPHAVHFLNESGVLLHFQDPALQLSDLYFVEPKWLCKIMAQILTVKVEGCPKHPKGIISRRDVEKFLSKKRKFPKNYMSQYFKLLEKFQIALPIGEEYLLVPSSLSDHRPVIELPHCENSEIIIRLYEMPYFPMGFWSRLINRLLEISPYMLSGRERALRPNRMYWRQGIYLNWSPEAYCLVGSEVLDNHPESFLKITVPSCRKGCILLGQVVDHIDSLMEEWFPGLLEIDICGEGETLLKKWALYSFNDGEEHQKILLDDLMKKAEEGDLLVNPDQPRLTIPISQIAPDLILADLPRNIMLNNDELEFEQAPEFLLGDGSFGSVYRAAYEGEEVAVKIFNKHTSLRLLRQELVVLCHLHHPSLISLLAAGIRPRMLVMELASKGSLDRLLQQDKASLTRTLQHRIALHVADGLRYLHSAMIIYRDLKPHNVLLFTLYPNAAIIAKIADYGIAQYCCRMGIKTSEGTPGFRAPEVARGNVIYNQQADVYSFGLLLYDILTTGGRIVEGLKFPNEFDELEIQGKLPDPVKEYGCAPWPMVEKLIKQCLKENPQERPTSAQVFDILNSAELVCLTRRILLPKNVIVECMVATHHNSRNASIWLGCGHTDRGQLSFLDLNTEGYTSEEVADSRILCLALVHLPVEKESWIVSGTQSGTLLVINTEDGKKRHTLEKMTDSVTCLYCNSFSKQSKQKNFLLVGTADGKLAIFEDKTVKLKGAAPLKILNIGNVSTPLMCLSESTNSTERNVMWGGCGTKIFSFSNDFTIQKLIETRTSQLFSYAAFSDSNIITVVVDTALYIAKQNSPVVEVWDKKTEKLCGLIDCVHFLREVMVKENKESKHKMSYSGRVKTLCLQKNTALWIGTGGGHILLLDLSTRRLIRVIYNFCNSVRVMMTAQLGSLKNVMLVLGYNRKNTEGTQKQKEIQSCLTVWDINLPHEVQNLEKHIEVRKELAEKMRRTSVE
T1 sequence (Q38SD2 28-2015): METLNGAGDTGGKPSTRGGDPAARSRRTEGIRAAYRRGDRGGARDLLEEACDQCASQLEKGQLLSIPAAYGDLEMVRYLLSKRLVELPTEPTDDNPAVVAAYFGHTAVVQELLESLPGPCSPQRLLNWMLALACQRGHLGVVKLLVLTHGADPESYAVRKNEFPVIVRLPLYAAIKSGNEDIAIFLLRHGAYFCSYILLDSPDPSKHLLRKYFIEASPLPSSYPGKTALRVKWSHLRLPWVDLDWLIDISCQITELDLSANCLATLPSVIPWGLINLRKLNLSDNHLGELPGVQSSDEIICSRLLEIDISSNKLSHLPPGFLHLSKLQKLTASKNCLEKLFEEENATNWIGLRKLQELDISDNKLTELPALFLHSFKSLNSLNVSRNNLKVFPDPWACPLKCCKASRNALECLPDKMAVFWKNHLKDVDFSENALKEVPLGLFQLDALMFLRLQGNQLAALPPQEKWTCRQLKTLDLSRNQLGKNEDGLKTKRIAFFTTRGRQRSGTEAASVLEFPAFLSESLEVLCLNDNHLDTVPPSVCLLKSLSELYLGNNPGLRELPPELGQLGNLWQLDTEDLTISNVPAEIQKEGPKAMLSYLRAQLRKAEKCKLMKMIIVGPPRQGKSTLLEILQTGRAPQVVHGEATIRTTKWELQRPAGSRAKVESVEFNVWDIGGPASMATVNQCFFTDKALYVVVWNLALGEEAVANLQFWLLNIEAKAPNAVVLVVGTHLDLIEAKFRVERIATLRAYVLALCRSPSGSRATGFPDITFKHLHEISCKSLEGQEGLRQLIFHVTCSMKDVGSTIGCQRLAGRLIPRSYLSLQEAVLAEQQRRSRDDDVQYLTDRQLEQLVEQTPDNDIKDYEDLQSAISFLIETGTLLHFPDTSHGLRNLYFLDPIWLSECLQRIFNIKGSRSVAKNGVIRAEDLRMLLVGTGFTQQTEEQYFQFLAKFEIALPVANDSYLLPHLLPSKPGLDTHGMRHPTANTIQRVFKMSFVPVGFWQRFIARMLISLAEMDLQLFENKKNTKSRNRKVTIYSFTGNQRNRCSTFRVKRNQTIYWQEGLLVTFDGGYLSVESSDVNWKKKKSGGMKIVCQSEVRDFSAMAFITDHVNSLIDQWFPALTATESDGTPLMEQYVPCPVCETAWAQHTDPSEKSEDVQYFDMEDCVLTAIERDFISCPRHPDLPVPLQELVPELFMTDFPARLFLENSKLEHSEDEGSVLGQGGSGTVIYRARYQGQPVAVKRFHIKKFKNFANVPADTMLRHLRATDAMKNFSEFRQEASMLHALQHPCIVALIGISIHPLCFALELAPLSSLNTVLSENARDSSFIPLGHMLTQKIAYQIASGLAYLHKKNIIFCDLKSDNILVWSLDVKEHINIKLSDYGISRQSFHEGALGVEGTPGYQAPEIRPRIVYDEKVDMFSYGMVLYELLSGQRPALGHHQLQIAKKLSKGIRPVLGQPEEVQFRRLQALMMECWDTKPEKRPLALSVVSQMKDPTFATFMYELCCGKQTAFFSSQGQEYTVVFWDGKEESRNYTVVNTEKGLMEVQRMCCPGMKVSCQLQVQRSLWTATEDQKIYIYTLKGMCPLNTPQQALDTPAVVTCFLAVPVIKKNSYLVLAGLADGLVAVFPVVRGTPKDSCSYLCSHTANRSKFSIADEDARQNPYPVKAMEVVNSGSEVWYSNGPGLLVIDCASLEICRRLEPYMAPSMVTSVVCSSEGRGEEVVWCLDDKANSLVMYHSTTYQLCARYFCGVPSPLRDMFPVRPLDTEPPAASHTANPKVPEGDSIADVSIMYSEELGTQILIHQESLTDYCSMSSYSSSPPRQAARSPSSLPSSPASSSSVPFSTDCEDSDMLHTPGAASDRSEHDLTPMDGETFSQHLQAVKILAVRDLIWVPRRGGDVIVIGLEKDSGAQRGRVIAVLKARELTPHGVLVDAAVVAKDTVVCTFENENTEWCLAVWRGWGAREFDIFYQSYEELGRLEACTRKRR

With “3xFlag-LRRK1 K650A GTP deficient binding mutant, full-length (from UniProt Q38SD2 1-2015) (enzyme)” the stoichiometry N [1] was 2.

Work on “3xFlag-LRRK1 wild-type (leucine-rich repeat kinase 1), full-length (from UniProt Q38SD2 1-2015) (enzyme)” yielded a stoichiometry N [2] of 2.

“3xFlag-LRRK2 G2019S pathogenic mutant, full-length, Q5S007 1-2527” gave a stoichiometry N [3] of 2.

Molecule “3xFlag-LRRK2 K1906M kinase dead mutant, full-length, Q5S007 1-2527” has a stoichiometry N [4] of 2.

Molecule “3xFlag-LRRK2 T1348N GTP deficient binding mutant, full-length, Q5S007 1-2527” has a stoichiometry N [5] of 2.

With `Nc1ncnc2c1ncn2[C@@H]1O[C@H](COP(=O)(O)OP(=O)(O)OP(=O)(O)O)[C@@H](O)[C@H]1O` [ATP] the “pulldown from cell lysate on ATP-agarose, competed by free ATP” value (3xFlag-LRRK1) was “we confirm binding of both proteins to ATP using different ATP agarose beads” and the “pulldown from cell lysate on ATP-agarose, competed by free ATP” value (3xFlag-LRRK2) was “we confirm binding of both proteins to ATP using different ATP agarose beads”.

B1: 3xFlag-LRRK1 kinase dead mutant (K1269M; printed K1269W in the dimer experiment), full-length (enzyme)
chain: METLNGAGDTGGKPSTRGGDPAARSRRTEGIRAAYRRGDRGGARDLLEEACDQCASQLEKGQLLSIPAAYGDLEMVRYLLSKRLVELPTEPTDDNPAVVAAYFGHTAVVQELLESLPGPCSPQRLLNWMLALACQRGHLGVVKLLVLTHGADPESYAVRKNEFPVIVRLPLYAAIKSGNEDIAIFLLRHGAYFCSYILLDSPDPSKHLLRKYFIEASPLPSSYPGKTALRVKWSHLRLPWVDLDWLIDISCQITELDLSANCLATLPSVIPWGLINLRKLNLSDNHLGELPGVQSSDEIICSRLLEIDISSNKLSHLPPGFLHLSKLQKLTASKNCLEKLFEEENATNWIGLRKLQELDISDNKLTELPALFLHSFKSLNSLNVSRNNLKVFPDPWACPLKCCKASRNALECLPDKMAVFWKNHLKDVDFSENALKEVPLGLFQLDALMFLRLQGNQLAALPPQEKWTCRQLKTLDLSRNQLGKNEDGLKTKRIAFFTTRGRQRSGTEAASVLEFPAFLSESLEVLCLNDNHLDTVPPSVCLLKSLSELYLGNNPGLRELPPELGQLGNLWQLDTEDLTISNVPAEIQKEGPKAMLSYLRAQLRKAEKCKLMKMIIVGPPRQGKSTLLEILQTGRAPQVVHGEATIRTTKWELQRPAGSRAKVESVEFNVWDIGGPASMATVNQCFFTDKALYVVVWNLALGEEAVANLQFWLLNIEAKAPNAVVLVVGTHLDLIEAKFRVERIATLRAYVLALCRSPSGSRATGFPDITFKHLHEISCKSLEGQEGLRQLIFHVTCSMKDVGSTIGCQRLAGRLIPRSYLSLQEAVLAEQQRRSRDDDVQYLTDRQLEQLVEQTPDNDIKDYEDLQSAISFLIETGTLLHFPDTSHGLRNLYFLDPIWLSECLQRIFNIKGSRSVAKNGVIRAEDLRMLLVGTGFTQQTEEQYFQFLAKFEIALPVANDSYLLPHLLPSKPGLDTHGMRHPTANTIQRVFKMSFVPVGFWQRFIARMLISLAEMDLQLFENKKNTKSRNRKVTIYSFTGNQRNRCSTFRVKRNQTIYWQEGLLVTFDGGYLSVESSDVNWKKKKSGGMKIVCQSEVRDFSAMAFITDHVNSLIDQWFPALTATESDGTPLMEQYVPCPVCETAWAQHTDPSEKSEDVQYFDMEDCVLTAIERDFISCPRHPDLPVPLQELVPELFMTDFPARLFLENSKLEHSEDEGSVLGQGGSGTVIYRARYQGQPVAVWRFHIKKFKNFANVPADTMLRHLRATDAMKNFSEFRQEASMLHALQHPCIVALIGISIHPLCFALELAPLSSLNTVLSENARDSSFIPLGHMLTQKIAYQIASGLAYLHKKNIIFCDLKSDNILVWSLDVKEHINIKLSDYGISRQSFHEGALGVEGTPGYQAPEIRPRIVYDEKVDMFSYGMVLYELLSGQRPALGHHQLQIAKKLSKGIRPVLGQPEEVQFRRLQALMMECWDTKPEKRPLALSVVSQMKDPTFATFMYELCCGKQTAFFSSQGQEYTVVFWDGKEESRNYTVVNTEKGLMEVQRMCCPGMKVSCQLQVQRSLWTATEDQKIYIYTLKGMCPLNTPQQALDTPAVVTCFLAVPVIKKNSYLVLAGLADGLVAVFPVVRGTPKDSCSYLCSHTANRSKFSIADEDARQNPYPVKAMEVVNSGSEVWYSNGPGLLVIDCASLEICRRLEPYMAPSMVTSVVCSSEGRGEEVVWCLDDKANSLVMYHSTTYQLCARYFCGVPSPLRDMFPVRPLDTEPPAASHTANPKVPEGDSIADVSIMYSEELGTQILIHQESLTDYCSMSSYSSSPPRQAARSPSSLPSSPASSSSVPFSTDCEDSDMLHTPGAASDRSEHDLTPMDGETFSQHLQAVKILAVRDLIWVPRRGGDVIVIGLEKDSGAQRGRVIAVLKARELTPHGVLVDAAVVAKDTVVCTFENENTEWCLAVWRGWGAREFDIFYQSYEELGRLEACTRKRR
B1 was tested, and the “stoichiometry N” value [6] was 2.
